This note sets out measurements from the supplement of paper PMC12636428.

The series has as its system Saccharomyces cerevisiae. In words: transcriptional activation domain activity (GFP:mCherry ratio, weighted mean of sorted bins, harmonized to initial dataset scale) (arbitrary fluorescence ratio units); higher = stronger transcriptional activation. As to conditions: beta-estradiol 1 µM; induction time 4 h. The essentials: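 Barcoded tiles were sequenced after cells were sorted into 8 bins by GFP:mCherry ratio. Before sorting, cultures had been diluted 1:5 into SC with 1 uM beta-estradiol and held for 4 hours at 30 °C. The tiles were fused to an estradiol-inducible synthetic transcription factor and integrated at URA3 in yeast diploids carrying a GFP reporter. Activation activity is the read-weighted mean of bin median fluorescence, averaged over barcodes and linearly mapped onto the initial dataset scale, and tiles under 50 reads were left out.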

With “MSHLLSSFLYDSLSFCFILLFGFDVILFPLFKYLWTTSSFYMFWMPDHLTLAV”, the “transcriptional activation domain activity” value was found to be 73900.

For the sequence “MSLRRSCLIFRWHVFMLLLMLFVRTWLVRLLVFLVFVVLMVRLLSLFPPFPLS”, the “transcriptional activation domain activity” value is 32200.

In the case of “EAGNERRESSRRHDDTERRERRRHRSHDRGHDRERRHRRHRRSRSRDRDGGRE”, the “transcriptional activation domain activity” value turned out to be 34300.

Turning to “VNDIYDSSRSRACNACRNSKVRCEQPRPDHPCKRCAKARRECVSSTRGHKRRR”, the “transcriptional activation domain activity” value is below 6570.

With “STLQLASSFDITVNGPPVLCQGISITACASSSLVVALSWISCMIMLMYFFSLL”, the “transcriptional activation domain activity” value is 52800.

As for “ILTILYKSNAVFFLEWMVFVAYQIFNLFAWVFNCWGKILPKVGSFFLYVSLVS”, the “transcriptional activation domain activity” value is 63000.

For the sequence “RTSDRYLETLDALFVDKFVYAHAWTTFMSTCLKTWRRDCCSSAMLLLLHILCF”, the “transcriptional activation domain activity” value is 54900.

Regarding “MFCWLCYFLPFISFGFPLIYPSSVGILLWIVISGLCVFIFTLKMFLVFLLLFF”, the “transcriptional activation domain activity” value amounted to 46100.

Turning to “NSSVYETVTRNLHDDLLGGSLNLKVILEMLLAHVIVNPSLVLEPAASLLRRNG”, the “transcriptional activation domain activity” value was 58200.

Consider “MWLIWLIWLLALLVDLFSFSVLFFFSLSLFLSFFWFFFFSFFQSFFPFLAVSF”, for which the “transcriptional activation domain activity” value came out at 66900.

As to “DNTPVLQEYLAVFRHLLSFHDPELSSHLDTIGFMPDLYAIPWFLTLFTHVFPL”, the “transcriptional activation domain activity” value came out at 64500.

As to “SPSRRRDRDYDYSRYRRRDDSRSRSPRRRADPKDQQEKEKEKVKVKPSRAAAT”, the “transcriptional activation domain activity” value came out at 16200.

Regarding “HFLLLPSLFLFSSFLPFLTSLPPHSPFFFLSFLFFSPLFSLFFLFINSTHFLP”, the “transcriptional activation domain activity” value was 41700.

Regarding “YDTPSLQMMTIHKSFFGIVNDDTFHWKGLSKLSLDSVPGCRLLSILLLCSATL”, the “transcriptional activation domain activity” value was found to be 73200.

With “NWNKYNWLIIAILSNFTSWFFHVWHHKLYSAFHDTSRIKNWNLFKTIQFWLFI”, the “transcriptional activation domain activity” value is 45300.

On to “MRLIYLPIIFCRLPSHGWTIWMPIIRALSLLVFSLIYLLFIGDLPALTLTIFF”, for which the “transcriptional activation domain activity” value worked out at 50900.

“KTQDESKPADGASTEQPAKKKRKRKQKRAQDGEGGEGAAAVGGGGGGEETQKA”: the “transcriptional activation domain activity” value came out at 33200.

For the sequence “EAKTDAETAVETQPEPKEEVATEETTKSAAKPAGAKKGGKKRAQPEKPADEAA”, the “transcriptional activation domain activity” value is 12500.

“GPSSSSSLSSSAGMPGTFVLNLGRYGGYYVIHMPVGAQRVLGLVLRRWKTLLF”: the “transcriptional activation domain activity” value stood at 60500.

As for “LFFHILFPFFFFFQFLFSLFFFSFFFHSFFFLYFLFFPGGFFFQFCCFFFPSF”, the “transcriptional activation domain activity” value is 44800.

As for “WQTALVHKHAQRVIHSTLEVVDQLVPKHYDHQLLRRCWGALNLIMTYVSFMCV”, the “transcriptional activation domain activity” value is 41400.

“KPHGKQAAESTRGQSTTGTNSTTSNSSRASGSRRQETDRGKEGKSNKASSSSG”: the “transcriptional activation domain activity” value was determined as 21900.

For the sequence “LSSSVPIEAETFSSFRPDMNMTMNMNLHNASTSSFNNEAFWKPLDSAIDHHSG”, the “transcriptional activation domain activity” value stood at 53500.

Consider “PSSLVAQGQCAVAGDDVLEALAIRGIDFKLYAGILLLIALVYRLLLYIVLVFK”, for which the “transcriptional activation domain activity” value is 66100.

As for “MDNKSSKSPGNIPKHRACDECRSRKLACSKEPDGCARCKRERIKCHYSPQKPM”, the “transcriptional activation domain activity” value was found to be 34700.

Turning to “AWCHLSVVGRASNLVVYLLIRARKLQLDLGLGFYQRSLLMLCEKLIVVDIFSL”, the “transcriptional activation domain activity” value was determined as 63400.

Take “LSLWFLILGALSTTSSFFNIFILQWGVIRCCSVIGPGPCTESILGITQLAVQF”: the “transcriptional activation domain activity” value was determined as 51100.

Turning to “LLEELTQRLLQTDETPDSKVKDLSRFINMIILRFFATARRMAVFRALFNLLLH”, the “transcriptional activation domain activity” value was 50300.

Regarding “SSQVARLHQSWQHSIRVPFALVANYDHPLPWLLQHYVPLYMPALLFRFHILTF”, the “transcriptional activation domain activity” value was 50100.

For “SEPELYVPQFKLDPVNGFWFPHFVKYIILILMLGLYVLIIFWTFMICKVVYRL”, the “transcriptional activation domain activity” value amounted to 33300.

Regarding “MDGLFFFFFPFFFLFITLPTNFILFLIVGGSSSSLFFFFGFWFLVWFGLVYLC”, the “transcriptional activation domain activity” value stood at 27600.

With “RRTSSTSSPSRSSSGTRARARSRSSRSTRSAAACSPSTRRAPRPTARPSSRPS”, the “transcriptional activation domain activity” value turned out to be 27400.

As for “MGGFVYAYCSAQSLTLLPWLLFFDYLFFSFLCILNYISFLFFYFLGFEVGWVI”, the “transcriptional activation domain activity” value came to 71200.

On to “VLYSSLITIFTAFYWNVASTSSVQILALLLPYTHPNIAHASTIRPFLIYALFT”, for which the “transcriptional activation domain activity” value was found to be 66700.

Regarding “LLLYLLQLVQALKYEHISTEANRDATQKSSLARFLIARAVDSFMLGNYFYWYL”, the “transcriptional activation domain activity” value worked out at 59400.

For the sequence “KKKAAAEEDDEDDDEKVPAKKPAKRGRKKAADDEADEPQPPAKKAKKSPAKKT”, the “transcriptional activation domain activity” value worked out at 55800.

Turning to “AWKRVTALLGPVVRLKADIVEIFERVMIIYFRSLDLEEKPITAGILGTVNKWN”, the “transcriptional activation domain activity” value stood at 48300.

In the case of “EEPKAEEAKAEEAAKEEPKAEESKAEEPKAEEPKAEEPKAEEEPKAEEAAKEE”, the “transcriptional activation domain activity” value worked out at 7200.

Regarding “KFLRHVLLKYFSFRLRSWMLNWAIGCVVRLFFFILHLLHPSWIFFLIYPYILN”, the “transcriptional activation domain activity” value is 54400.

Regarding “RKPEAAAEKAAEAPEAAGGEGTRRRASGRGRGRGRNGRGGRSARAGEEKKDET”, the “transcriptional activation domain activity” value stood at 29500.

For “YRTSQDLVGLSTVLEQYFNIGGLTGLLIIGDLIHCGLLPMPSIITWTRLIAHV”, the “transcriptional activation domain activity” value worked out at 68800.

With “KKSGTTSKDEKKEGDSDSKATPSSGESAAPSAANNEGGKKEEKSEEKKEEKEE”, the “transcriptional activation domain activity” value was 41700.

For the sequence “MITTLFSFLLVFFPFFLFRFFLLLLLLNLFLLLLSHFLSLYHQPISPIPPRHH”, the “transcriptional activation domain activity” value amounted to 74200.

Consider “MVLCNSKSLFFPLFLHYLYCVIFLLLWILFHIAFIFFTNFYYYLPSHTLCAFI”, for which the “transcriptional activation domain activity” value turned out to be 61700.

In the case of “SSSEEGEDGKGKDKEKHGFRARAKSFTRRKSDAGSRAPSRTGRKRSDSTATAA”, the “transcriptional activation domain activity” value stood at 24500.

As for “FWRYRQNQYAYILSYIVGSETSEERISVMRKNGTYHPAPYQFVYLRVRIANLS”, the “transcriptional activation domain activity” value came to 38700.

Regarding “IGLQMASFVLGGFVYFGLSFQSSNYVVLLYYEFAALSQNVYLTVAIIWRLLIF”, the “transcriptional activation domain activity” value was 72300.

For the sequence “DPYDWSTYSNLIDEERIFVPEVQSSDHINDKFLTVANVTGEGSEGLIMQWLSC”, the “transcriptional activation domain activity” value turned out to be 133000.

With “SFSVLNLNLGKIENDGNESNEDYLGNEKFYLNEILPDEESKLRWKRVFENSEN”, the “transcriptional activation domain activity” value stood at 52600.

On to “MDNQAGEQKPKQRRVADRERKRAVRACDGCRRQKEKCDGGVPCRRCIRLRRQC”, for which the “transcriptional activation domain activity” value was determined as 53600.

Regarding “TVEFLLPFLSFSLLGCLFIFYFIFFLCFLFFFSQTFCFFISSNCWCFVSNLLP”, the “transcriptional activation domain activity” value is 34700.

Regarding “AAPKAKATTAKAKATTTKKATTAKASTTKKAAAAKPKANASKPRKAAAATAAA”, the “transcriptional activation domain activity” value was 38600.

Regarding “FVTLFGLAYFILTILPCLDHSCPYRTPMSSLWWYLWHMSLSSATLCLCWLLRL”, the “transcriptional activation domain activity” value was 33600.

Consider “YLHAVLCELQSSFNRKATTRSKLTHTPNLPEYTFPFAWLTLPFAAARRCTPAG”, for which the “transcriptional activation domain activity” value came to 66600.

As to “PMGGDPLLDQAFYGADDFFFPPEGCDNNMLYPQTATSWNVLPPQAMQPAPTYV”, the “transcriptional activation domain activity” value was 63900.
